Patent US20090326205A1 (LIV TECH, published 2009)

What was measured:
[1] = molecular target: T1, hDlk-1 EGF-like motif deletion construct EGF (4-6) expressed on COS-7 cells (human, UniProt P80370 131-244); experiment: FACS and immunostaining of transfected COS-7 cells
T1 construct: also called hDlk (EGF 4-6)-pME18-CHFX; hdlk-EGF (4-6)/pME18S-CFHX
T1 sequence: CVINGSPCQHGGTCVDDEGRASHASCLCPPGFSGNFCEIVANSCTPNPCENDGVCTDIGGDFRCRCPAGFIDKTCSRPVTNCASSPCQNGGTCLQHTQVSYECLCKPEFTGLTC
Source text: (§1) Each of expression vectors hDlk (EGF 1-2)-pME-CHFX, hDlk (EGF 1-3)-pME-CHFX, hDlk (EGF 3-4)-pME-CHFX, hDlk (EGF 4-6)-pME18-CHFX and hDlk (EGF 5-6)-pME18-CHFX (FIG. 7) was introduced into COS-7 cells and they were then subjected to FACS analysis and the immunostaining of Cytospin specimens, so as to examine sites in a region containing 6 EGF-like motifs existing in the FA-1 region (extracellular region) of hDlk-1, which were recognized by each anti-hDlk-1 monoclonal antibody.
(§2) It has been reported that, among mouse IgG isotypes, IgG2a and IgG2b have strong antibody-dependent cytotoxic activity (ADCC) and that the ADCC of IgG1 is low (please refer to Kipps, T. J. et al., 1985). The isotype of the clone DI-2-14 is mouse IgG1.

[2] = molecular target: T2, hDlk-1 EGF-like motif deletion construct EGF (5-6) expressed on COS-7 cells (human, UniProt P80370 170-383); experiment: FACS and immunostaining of transfected COS-7 cells
T2 construct: also called hDlk (EGF 5-6)-pME18-CHFX
T2 sequence: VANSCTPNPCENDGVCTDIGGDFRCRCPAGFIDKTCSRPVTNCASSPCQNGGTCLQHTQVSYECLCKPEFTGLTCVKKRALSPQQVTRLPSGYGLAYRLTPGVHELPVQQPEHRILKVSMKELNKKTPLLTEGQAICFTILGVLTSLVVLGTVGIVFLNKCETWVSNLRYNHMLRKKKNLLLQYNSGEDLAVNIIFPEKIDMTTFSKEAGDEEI
Source text: as §1, §2

[3] = molecular target: T3, purified recombinant hFA-1 protein (hDlk-1 extracellular region, FA-1) (human, UniProt P80370 24-303); experiment: ELISA, purified recombinant hFA-1 (0.5 to 1 µg/mL) immobilized, antibody dilution series
T3 construct: also called human FA1; purified FA-1; not shown: C-terminal Myc tag and His tag from vector pcDNA4/Myc-His
T3 sequence: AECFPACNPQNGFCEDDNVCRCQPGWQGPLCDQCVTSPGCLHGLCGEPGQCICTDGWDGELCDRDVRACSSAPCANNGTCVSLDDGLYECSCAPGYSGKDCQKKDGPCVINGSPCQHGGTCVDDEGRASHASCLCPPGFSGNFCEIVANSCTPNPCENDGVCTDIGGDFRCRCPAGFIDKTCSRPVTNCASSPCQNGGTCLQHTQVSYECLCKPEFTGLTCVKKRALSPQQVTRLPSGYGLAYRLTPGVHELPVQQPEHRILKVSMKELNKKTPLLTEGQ
Procedure: ELISA was carried out in the same manner as described in Example 1, using an ELISA plate on which the purified recombinant hFA-1 protein (0.5 to 1 μg/mL) had been immobilized. Specifically, the ELISA plate was washed with a washing buffer 3 times and it was then blocked using a blocking solution at room temperature for 1 hour (or at 4° C. overnight). Thereafter, the plate was washed with a washing buffer 2 times and a mouse DI-2-14 antibody and a ChDI-2-14 antibody, wherein dilution series were produced using an ELISA buffer, were added to the plate, so that they were allowed to react (at 4° C. overnight). Thereafter, the plate was washed with a washing buffer 3 times and it was then allowed to react with HRP-labeled anti-mouse IgG (final concentration: 1 μg/mL) or HRP-labeled anti-human IgG (final concentration: 1 μg/mL) (both products manufactured by GE Healthcare), which had been diluted with a blocking solution.

[4] = molecular target: T3, purified recombinant hFA-1 protein …; experiment: ELISA method of Djavadi-Ohaniance: antibody (0.5 nM) equilibrated with hFA-1 (3.125-50 nM), then added to an hFA-1-coated plate
Procedure: Specifically, the purified recombinant hFA-1 protein (1 μg/mL) was added to a 96-well culture plate (Corning) to fix as an antigen (at room temperature for 1 hour). Subsequently, the plate was washed with PBS 3 times and 2% skim milk (PBS solution) was added thereto for blocking (at room temperature for 1 hour). After the plate had been washed with PBS 2 times, an antigen-antibody complex formed by previously mixing an antigen solution (a purified hFA-1 protein; 50, 25, 12.5, 6.25 and 3.125 nM) with each clone of the anti-hDlk-1 monoclonal antibody (0.5 nM) and then equilibrating the mixture was added to the aforementioned ELISA plate for a reaction (at room temperature for 1 hour). After the plate had been washed with PBS 3 times, it was allowed to react with HRP-labeled anti-mouse IgG (final concentration: 1 μg/mL) or HRP-labeled anti-rat IgG (final concentration: 1 μg/mL) (both of which were available from GE Healthcare Biosciences), which had been diluted with a blocking solution, at room temperature for 1 hour.
Subsequently, the affinity (dissociation constant) of these clones for an antigen was calculated by the aforementioned ELISA method. […] The affinity of the clone 2-13 for the purified recombinant hFA-1 was not high and thus the Kd value thereof could not be calculated by the aforementioned method.

B1: anti-hDlk-1 monoclonal antibody clone DI-2-14 (mouse IgG1) (antibody, V domains shown)
VH: EVQLQQSGAELVKPGASVKLSCTASGFNIRDTYIHWVKQRPEQGLEWIGRIDPPNGNLKYDPKFQGKATITADTSSNTAYLQFSSLTSEDTAVYYCARSDGYSFAYWGQGTLVTVSA
VL: DIVMTQAAPSVPVTPGESVSISCRSSKSLLHSNGNTYLYWFLQRPGQSPQLLIYRMSNLASGVPDRFSGSGSGTAFTLRISRVEAEDVGVYYCMQHVEYPFTFGSGTKLEIK
notes: also called mouse DI-2-14; mouse DI-2-14 antibody
Question: Which results are given for B1?
Answer: binding result [1]: no binding; binding result [2]: no binding; EC50 [3]: 0.01 µg/mL; Kd [4]: 9.26 nM

B2: chimeric DI-2-14 antibody (ChDI-2-14), mouse-human chimeric DI-2-14 IgG1/K (antibody, V domains shown)
VH: EVQLQQSGAELVKPGASVKLSCTASGFNIRDTYIHWVKQRPEQGLEWIGRIDPPNGNLKYDPKFQGKATITADTSSNTAYLQFSSLTSEDTAVYYCARSDGYSFAYWGQGTLVTVSA
VL: DIVMTQAAPSVPVTPGESVSISCRSSKSLLHSNGNTYLYWFLQRPGQSPQLLIYRMSNLASGVPDRFSGSGSGTAFTLRISRVEAEDVGVYYCMQHVEYPFTFGSGTKLEIK
notes: domain: human γ1 heavy chain constant region; not shown: human kappa chain constant region (CL) of vector pChDI-2-14
Question: With B2 as the binder, how does the EC50 [3] read?
Answer: The EC50 was 0.01 µg/mL.
